Reference: paper PMC10950897, “VCF1 is a p97/VCP cofactor promoting recognition of ubiquitylated p97-UFD1-NPL4 substrates” (Nature Communications, 2024)

B1: LMNA (protein, UniProt P02545 1-661, looked up)
Prelamin-A/C: METPSQRRATRSGAQASSTPLSPTRITRLQEKEDLQELNDRLAVYIDRVRSLETENAGLRLRITESEEVVSREVSGIKAAYEAELGDARKTLDSVAKERARLQLELSKVREEFKELKARNTKKEGDLIAAQARLKDLEALLNSKEAALSTALSEKRTLEGELHDLRGQVAKLEAALGEAKKQLQDEMLRRVDAENRLQTMKEELDFQKNIYSEELRETKRRHETRLVEIDNGKQREFESRLADALQELRAQHEDQVEQYKKELEKTYSAKLDNARQSAERNSNLVGAAHEELQQSRIRIDSLSAQLSQLQKQLAAKEAKLRDLEDSLARERDTSRRLLAEKEREMAEMRARMQQQLDEYQELLDIKLALDMEIHAYRKLLEGEEERLRLSPSPTSQRSRGRASSHSSQTQGGGSVTKKRKLESTESRSSFSQHARTSGRVAVEEVDEEGKFVRLRNKSNEDQSMGNWQIKRQNGDDPLLTYRFPPKFTLKAGQVVTIWAAGAGATHSPPTDLVWKAQNTWGCGNSLRTALINSTGEEVAMRKLVRSVTVVEDDEDEDGDDLLHHHHGSHCSSSGDPAEYNLRSRTVLCGTCGQPADKASASGSGAQVGGPISSGSSASSVTVTRSYRSVGGSGGGSFGDNLVTRSYLLGNSSPRTQSPQNC
B2: U4/U6.U5 tri-snRNP-associated protein 2 (protein, UniProt Q53GS9 1-565, looked up)
Ubiquitin carboxyl-terminal …: MSGRSKRESRGSTRGKRESESRGSSGRVKRERDREREPEAASSRGSPVRVKREFEPASAREAPASVVPFVRVKREREVDEDSEPEREVRAKNGRVDSEDRRSRHCPYLDTINRSVLDFDFEKLCSISLSHINAYACLVCGKYFQGRGLKSHAYIHSVQFSHHVFLNLHTLKFYCLPDNYEIIDSSLEDITYVLKPTFTKQQIANLDKQAKLSRAYDGTTYLPGIVGLNNIKANDYANAVLQALSNVPPLRNYFLEEDNYKNIKRPPGDIMFLLVQRFGELMRKLWNPRNFKAHVSPHEMLQAVVLCSKKTFQITKQGDGVDFLSWFLNALHSALGGTKKKKKTIVTDVFQGSMRIFTKKLPHPDLPAEEKEQLLHNDEYQETMVESTFMYLTLDLPTAPLYKDEKEQLIIPQVPLFNILAKFNGITEKEYKTYKENFLKRFQLTKLPPYLIFCIKRFTKNNFFVEKNPTIVNFPITNVDLREYLSEEVQAVHKNTTYDLIANIVHDGKPSEGSYRIHVLHHGTGKWYELQDLQVTDILPQMITLSEAYIQIWKRRDNDETNQQGA
notes: prey protein
B3: Isocitrate dehydrogenase [NAD] subunit gamma, mitochondrial (protein, UniProt P51553 40-393, looked up)
Isocitrate dehydrogenase …: FSEQTIPPSAKYGGRHTVTMIPGDGIGPELMLHVKSVFRHACVPVDFEEVHVSSNADEEDIRNAIMAIRRNRVALKGNIETNHNLPPSHKSRNNILRTSLDLYANVIHCKSLPGVVTRHKDIDILIVRENTEGEYSSLEHESVAGVVESLKIITKAKSLRIAEYAFKLAQESGRKKVTAVHKANIMKLGDGLFLQCCREVAARYPQITFENMIVDNTTMQLVSRPQQFDVMVMPNLYGNIVNNVCAGLVGGPGLVAGANYGHVYAVFETATRNTGKSIANKNIANPTATLLASCMMLDHLKLHSYATSIRKAVLASMDNENMHTPDIGGQGTTSEAIQDVIRHIRVINGRAVEA
notes: prey protein
B4: Complement component 1 Q subcomponent-binding protein, mitochondrial (protein, UniProt Q07021 74-282, looked up)
Complement component 1 Q …: LHTDGDKAFVDFLSDEIKEERKIQKHKTLPKMSGGWELELNGTEAKLVRKVAGEKITVTFNINNSIPPTFDGEEEPSQGQKVEEQEPELTSTPNFVVEVIKNDDGKKALVLDCHYPEDEVGQEDEAESDIFSIREVSFQSTGESEWKDTNYTLNTDSLDWALYDHLMDFLADRGVDNTFADELVELSTALEHQEYITFLEDLKSFVKSQ
notes: prey protein
B5: p47: p97 cofactor (protein)
chain: MAAERQEALREFVAVTGAEEDRARFFLESAGWDLQIALASFYEDGGDEDIVTISQATPSSVSRGTAPSDNRVTSFRDLIHDQDEDEEEEEGQRFYAGGSERSGQQIVGPPRKKSPNELVDDLFKGAKEHGAVAVERVTKSPGETSKPRPFAGGGYRLGAAPEEESAYVAGEKRQHSSQDVHVVLKLWKSGFSLDNGELRSYQDPSNAQFLESIRRGEVPAELRRLAHGGQVNLDMEDHRDEDFVKPKGAFKAFTGEGQKLGSTAPQVLSTSSPAQQAENEAKASSSILIDESEPTTNIQIRLADGGRLVQKFNHSHRISDIRLFIVDARPAMAATSFILMTTFPNKELADESQTLKEANLLNAVIVQRLT
modifications: left off: His6, end not stated, state not stated
notes: p97 cofactor

Columns and labels:
[1] = tested on: GFP-VCF1 WT / N167A interactome, U2OS cells; assay: GFP IP mass spectrometry, comparison of VCF1 WT and N167A interactomes (WT/N167A); format: binding, human; conditions: GFP-VCF1 WT / N167A IPs, partially denaturing RIPA buffer
Method: U2OS (catalog no. HTB-96) cells were obtained from ATCC. HEK293-EBNA1-6E cells were a kind gift from Yves Durocher (National Research Council Canada, Montreal, Canada). All mammalian cell lines were cultured under standard conditions at 37 °C and 5% CO2 in DMEM (Thermo) supplemented with 10% FBS (v/v) and penicillin-streptomycin (Thermo). Recombination cloning-compatible U2OS cells were generated using the Flp-In T-Rex Core Kit (Thermo) according to the manufacturer’s instructions and maintained under selection using Blasticidin (Invivogen) and Zeocin (Thermo). To generate cell lines stably expressing GFP-VCF1, U2OS Flp-In T-Rex cells (Thermo) were co-transfected with GFP-VCF1 constructs and pOG44 (Thermo) plasmids, followed by selection with Hygromycin (Invitrogen). Single clones were carefully screened for uniform expression of ectopic GFP-VCF1 at low levels and maintained under selection with Blasticidin and Hygromycin. To induce GFP-VCF1 expression, cells were treated with Doxycycline (DOX) (0.5 µg/ml) for 16 h. U2OS cell lines stably expressing Ub(G76V)-GFP or Ub(G76V)-GFP-20AA were described previously. A U2OS cell line stably expressing Ub(G76V)-GFP-NES was generated under G418 (Invivogen) selection. Clones with low baseline GFP expression were visually screened for low basal GFP expression. […]

[2] = tested on: GFP-VCF1 WT interactome, U2OS cells; assay: GFP IP mass spectrometry of VCF1-interacting proteins, partially denaturing RIPA buffer (+DOX/-DOX); format: binding, human
Method: U2OS (catalog no. HTB-96) cells were obtained from ATCC. HEK293-EBNA1-6E cells were a kind gift from Yves Durocher (National Research Council Canada, Montreal, Canada). All mammalian cell lines were cultured under standard conditions at 37 °C and 5% CO2 in DMEM (Thermo) supplemented with 10% FBS (v/v) and penicillin-streptomycin (Thermo). Recombination cloning-compatible U2OS cells were generated using the Flp-In T-Rex Core Kit (Thermo) according to the manufacturer’s instructions and maintained under selection using Blasticidin (Invivogen) and Zeocin (Thermo). To generate cell lines stably expressing GFP-VCF1, U2OS Flp-In T-Rex cells (Thermo) were co-transfected with GFP-VCF1 constructs and pOG44 (Thermo) plasmids, followed by selection with Hygromycin (Invitrogen). Single clones were carefully screened for uniform expression of ectopic GFP-VCF1 at low levels and maintained under selection with Blasticidin and Hygromycin. To induce GFP-VCF1 expression, cells were treated with Doxycycline (DOX) (0.5 µg/ml) for 16 h. U2OS cell lines stably expressing Ub(G76V)-GFP or Ub(G76V)-GFP-20AA were described previously. A U2OS cell line stably expressing Ub(G76V)-GFP-NES was generated under G418 (Invivogen) selection. Clones with low baseline GFP expression were visually screened for low basal GFP expression. All cell lines used in this study were regularly tested negative for mycoplasma infection and were not authenticated.
Immunoblotting was performed as previously described. Immunoprecipitation (IP) of HA-tagged proteins was performed using Anti-HA Affinity matrix (Roche) under denaturing conditions, unless otherwise stated. GFP-trap and […] Fab-trap agarose (Chromotek) were used according to manufacturer’s instructions. Cell lysis was performed using RIPA buffer (140 mM NaCl; 10 mM Tris-HCl, pH 8.0; 0.1% sodium deoxycholate; 1% Triton X-100; 0.1% SDS; 1 mM EDTA; 0.5 mM EGTA) or EBC buffer (50 mM Tris, pH 7.5; 150 mM NaCl; 1 mM EDTA; 0.5% NP-40, 1 mM DTT). IPs were washed in non-denaturing buffer (50 mM Tris-HCl, pH 7.5; 150 mM NaCl; 0.5 mM EDTA). […]

[3] = tested on: p97 with UFD1-NPL4, p47 or FAF1; assay: In vitro binding with p97 cofactors (GST, StrepTactin, p47, p97 or FLAG pulldown); design: species or system human; conditions: high/increasing concentrations
Method: All in vitro binding experiments were performed in EBC or RIPA buffer as indicated. Recombinant Biotin-tagged K48-linked poly-ubiquitin chains (2−7) and K48-linked poly-ubiquitin chains (2−16) were purchased from R&D Systems and Enzo Life Science, respectively. Recombinant proteins were incubated with Strep-Tactin Sepharose (IBA), Glutathione agarose (Gold Biotechnology) or […] Fab-trap agarose (ChromoTek) overnight on an end-over-end rotator at 4 °C, washed six times with EBC or RIPA buffer, and resuspended in 2×Laemmli sample buffer. For p97, VCF1 or p47 pulldowns, antibodies (0.5 µg/sample) were coupled to agarose beads, incubated with recombinant proteins or cell lysates and washed with the indicated buffer. To assess p97-UFD1-NPL4 binding to ubiquitylated proteins in total cell extracts, U2OS cells were lysed in EBC buffer supplemented with protease and phosphatase inhibitors, sonicated and incubated on ice for 10 min. Lysates were cleared by centrifugation for 10 min at 16,100 × g. Cell lysate (40 µg) was added to recombinant proteins in EBC buffer, incubated overnight on the rotator with […] Fab-trap agarose (ChromoTek), and beads were washed six times.

p97 = conditions: reported for p47/NSFL1C; cited from earlier work
Excerpt: Through in silico searches for candidate regulators of p97 function, we came across FAM104A, a virtually uncharacterized protein detected in unbiased large-scale proteomic profiles of p97 interaction networks along with known p97 cofactors (Supplementary Fig. 1a)[20],[21], but whose precise connection to p97 has not been studied. In humans, FAM104A encodes a relatively small protein of 186 amino acids that contains no annotated domains but is conserved across vertebrates (Supplementary Fig. 1b) and is broadly expressed, albeit at low levels, in human tissues. For reasons described in the follo ...

Molecule | Relative protein level (log2) WT/noDox [2] [log2] | further results
B1 |  | Relative protein level (log2) WT/MUT [1]: 3.361 log2
B2 | 1.44 | 
B3 | 1.726 | 
B4 | 2.689 | 
B5 |  | displacement of p97-bound cofactors [3]: did not lead to dissociation of VCF1 from p97; Kd (p97): 200 to 500 nM
